A short description of this data set: protein stability index of a GFP-peptide fusion (GPS, HEK-293T) (PSI 1-6); higher = more stable. The settings on record: c terminus: a fixed tail appended.

± gives the standard deviation.
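Further: 24-mer peptide tiles fused after GFP, lentivirally expressed, FACS-sorted into six equal bins by GFP/DsRed ratio, decoded by Illumina sequencing, PSI is the read-weighted mean bin number.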

On to AAANCHFHCIETLVTTGANVNETD [ANKRD44], for which the protein stability index runs as follows: (treatment: DMSO) 3.99 ± 0.22; (treatment: MLN4924 1 uM, 8 h) 4.08 ± 0.15.

Regarding AAANKLFHYIPGTDILDLENQREN [PLEKHN1], the protein stability index turned out to be 4.13 ± 0.3 (treatment: DMSO) and 3.92 ± 0.43 (treatment: MLN4924 1 uM, 8 h).

As to AACLYLVCRTEGTPHMLLDLSDLL [BRF1], the protein stability index reads like this: (treatment: DMSO) 3.31 ± 0.47; (treatment: MLN4924 1 uM, 8 h) 2.85 ± 0.43.

Regarding AAKQLEYQQLEDDKLSQKSSSSKL [EPB41L3], the protein stability index was 5 ± 0.64 (treatment: DMSO) and 4.92 ± 0.33 (treatment: MLN4924 1 uM, 8 h).

AALLQLVRRLQALRLEREEYVLLK [ESRRA]: the protein stability index by setting is: (treatment: DMSO) 2.19 ± 0.37; (treatment: MLN4924 1 uM, 8 h) 1.95 ± 0.18.

For the sequence AANLPALVLKIMSGTFAPISDRYS [NEK8], the protein stability index (treatment: DMSO) came to 3.08 ± 0.27 and the protein stability index (treatment: MLN4924 1 uM, 8 h) turned out to be 2.9 ± 0.56.

With AARAVRANDINYQDQIPRTLEEFV [FEM1B], the protein stability index is, setting by setting: (treatment: DMSO) 3.96 ± 0.21; (treatment: MLN4924 1 uM, 8 h) 3.77 ± 0.32.

For AASSAKMGLVETKLAIIPGGGGTQ [AUH], the protein stability index (treatment: DMSO) was found to be 3.83 ± 0.66 and the protein stability index (treatment: MLN4924 1 uM, 8 h) turned out to be 4.61 ± 0.51.

On to AATDITGFGILGHSQNLAKQQRNE [SEPHS2], for which the protein stability index runs as follows: (treatment: DMSO) 4.68 ± 0.38; (treatment: MLN4924 1 uM, 8 h) 4.57 ± 0.31.

Regarding AAVESVLHLGLPWRMLRPQLVNSS [PPEF2], the protein stability index reads like this: (treatment: DMSO) 2.74 ± 0.81; (treatment: MLN4924 1 uM, 8 h) 2.46 ± 0.41.

For the sequence ACDIRVAASSAKMGLVETKLAIIP [AUH], the protein stability index came out at 2.95 ± 0.22 (treatment: DMSO) and 3.03 ± 0.32 (treatment: MLN4924 1 uM, 8 h).

On to ACGGTRDQLFMQEKARQLLGRLKP [MYBL2], for which the protein stability index was determined as 3.39 ± 0.54 (treatment: DMSO) and 3.29 ± 0.38 (treatment: MLN4924 1 uM, 8 h).

As for ACGVILYILLVGYPPFWDEDQHKL [CAMK2B], the protein stability index runs as follows: (treatment: DMSO) 3.05 ± 0.85; (treatment: MLN4924 1 uM, 8 h) 2.93 ± 0.38.

ADDESETPEELEEEIPVVICAAAG [GLT8D2]: the protein stability index is 5.582 ± 0.029 (treatment: DMSO) and 5.5 ± 0.35 (treatment: MLN4924 1 uM, 8 h).

Regarding ADVTLDPETAHPNLVLSEDRKSVK [TRIM39], the protein stability index (treatment: DMSO) stood at 5.38 ± 0.16 and the protein stability index (treatment: MLN4924 1 uM, 8 h) worked out at 5.37 ± 0.43.

Regarding AEAGHVDICHMLVQFCRLGSPRSR [EHMT1], the protein stability index is, setting by setting: (treatment: DMSO) 2.3 ± 0.17; (treatment: MLN4924 1 uM, 8 h) 2.37 ± 0.34.

As for AEDDHMLIQNEYRNGGSLADAISE [WEE1], the protein stability index reads like this: (treatment: DMSO) 5.06 ± 0.27; (treatment: MLN4924 1 uM, 8 h) 4.9 ± 0.43.

AEEPNAAVPDEIPPLEGDEDASRM [HSP90AB1]: the protein stability index is, setting by setting: (treatment: DMSO) 5.74 ± 0.15; (treatment: MLN4924 1 uM, 8 h) 5.65 ± 0.15.

AEEYEDSSTKPPKSRRKAALSSPR [INTS3]: the protein stability index reads like this: (treatment: DMSO) 5.23 ± 0.12; (treatment: MLN4924 1 uM, 8 h) 5.27 ± 0.27.

Regarding AEISARTMQSMFAKNFHVKAVMKT [PTPRD], the protein stability index (treatment: DMSO) is 2.56 ± 0.32 and the protein stability index (treatment: MLN4924 1 uM, 8 h) stood at 2.67 ± 0.39.

As to AELFSYVLQDRAAKGSLGTQIGFA [FEM1A], the protein stability index runs as follows: (treatment: DMSO) 2.16 ± 0.21; (treatment: MLN4924 1 uM, 8 h) 2.11 ± 0.23.

Sequence AELLIFSVPIVYEKYKTQIDHYVG [RTN3] displayed a protein stability index (treatment: DMSO) of 2.65 ± 0.77 and a protein stability index (treatment: MLN4924 1 uM, 8 h) of 2.61 ± 0.56.

On to AEYYRLHLEGYHGTAGDSMSYHSG [TNXB], for which the protein stability index reads like this: (treatment: DMSO) 3.09 ± 0.83; (treatment: MLN4924 1 uM, 8 h) 2.96 ± 0.43.

As to AFLKLAKQRSVCTWGKNKPGIGAV [FAN1], the protein stability index stood at 2.76 ± 0.4 (treatment: DMSO) and 2.3 ± 0.48 (treatment: MLN4924 1 uM, 8 h).

For the sequence AGGYVDVVKVLLESGASIEDHNEN [ANKRD17], the protein stability index runs as follows: (treatment: DMSO) 3.08 ± 0.24; (treatment: MLN4924 1 uM, 8 h) 3.12 ± 0.36.

Take AGHRRPAGGIRESKESSKEKKLTV [C22orf31]: the protein stability index (treatment: DMSO) was 5.05 ± 0.41 and the protein stability index (treatment: MLN4924 1 uM, 8 h) came to 4.86 ± 0.38.

Take AHQQKKHSGFEDELSEVLENQSSQ [CHGA]: the protein stability index reads like this: (treatment: DMSO) 5.28 ± 0.26; (treatment: MLN4924 1 uM, 8 h) 5.25 ± 0.34.

In turn, AIAWCLRNEGVSSVLLGASNADQL [KCNAB2] had a protein stability index (treatment: DMSO) of 2.23 ± 0.27 and a protein stability index (treatment: MLN4924 1 uM, 8 h) of 2.1 ± 0.13.

As to AIIGWLLTTCTSNVAASNAKLALF [INTS3], the protein stability index by setting is: (treatment: DMSO) 3.13 ± 0.21; (treatment: MLN4924 1 uM, 8 h) 3 ± 0.45.

For the sequence AINRDTAFPGASHESSGNPPLRVI [RHOBTB3], the protein stability index runs as follows: (treatment: DMSO) 3.44 ± 0.049; (treatment: MLN4924 1 uM, 8 h) 3.47 ± 0.29.

On to AIRRFQSMPVRLLGHSPVLRNITN [CDC25B], for which the protein stability index is, setting by setting: (treatment: DMSO) 2.42 ± 0.35; (treatment: MLN4924 1 uM, 8 h) 2.24 ± 0.22.

Turning to AKKFMWRDSFMRHRGHCERRHRLG [ZBTB22], the protein stability index reads like this: (treatment: DMSO) 2.94 ± 0.23; (treatment: MLN4924 1 uM, 8 h) 3.1 ± 0.41.

Sequence AKVTGEVLDILTRLPESVERLTGV [FLOT1] had a protein stability index (treatment: DMSO) of 2.98 ± 0.37 and a protein stability index (treatment: MLN4924 1 uM, 8 h) of 3.17 ± 0.34.

As to ALAEGYRYPELDTPKLDCFLSGME [TBX6], the protein stability index was determined as 3.2 ± 0.48 (treatment: DMSO) and 3.5 ± 0.19 (treatment: MLN4924 1 uM, 8 h).

Regarding ALDEIKLLKCVRESDPSDPNKDMV [SRPK2], the protein stability index was 4.75 ± 0.23 (treatment: DMSO) and 4.54 ± 0.26 (treatment: MLN4924 1 uM, 8 h).

Consider ALDYLQNQRIIHRDMKPDNILLDE [STK32A], for which the protein stability index reads like this: (treatment: DMSO) 3.14 ± 0.17; (treatment: MLN4924 1 uM, 8 h) 3.47 ± 0.45.

Values taken from the supplement of paper PMC10567573.
